Marks after values point to notes of the source that are not given here.
What was measured:
[1] = biological target: T1, DOI reductase from Burkholderia terrae strain AKC-020 (Paraburkholderia terrae, UniProt A0ABM7TVX3); assay: Km value and Vmax of purified DOI reductase; type: biochemical
Description: (§1) The protein concentration of the enzyme solution was also measured by the Bradford method.

[2] = biological target: T1, DOI reductase from Burkholderia terrae strain AKC-020; assay: Substrate specificity of purified DOI reductase (oxidation reaction, NAD+ to NADH at 340 nm); type: biochemical; settings: substrate 5 mM
Description: A quantity of 10 μL of enzyme solution was added to 980 μL of 0.1 M buffer containing 1.0 μmol of NAD^+ and prewarmed for five minutes at 25° C. A quantity of 10 μL of each 0.1 M substrate was added and mixed immediately. The rate of increase in the absorbance (wavelength 340 nm) over two minutes was measured by spectrophotometer, and the activity by each substrate was compared. […] In the table, N.D. means that no reaction could be detected.

[3] = DOI reducing activity of recombinantly expressed inositol dehydrogenases/DOIR; type: biochemical; settings: for DOI reducing activity: expressed in E. coli BL21 (DE3); for catalytic activity to convert 2-deoxy-scyllo-inosose into (−)-vibo-quercitol / reduction of DOI (in words): recombinant expression in Escherichia coli
Description: Specifically, the reaction solution composition other than DOI (990 μL) was taken by cuvette and prewarmed for approximately 5 minutes at 25° C. After adding DOI solution (10 μL) and mixing quickly, the rate of decrease in the absorbance (wavelength […]) over two minutes was measured using a spectrophotometer (Shimadzu, UV-2550) regulated to 25° C. with water as the control, and the decrease in absorbance per minute was calculated. Next, each strain was evaluated by calculating the U per mL of crude enzymatic solution, defining the amount that decreases [sic; converts]
Furthermore, inositol dehydrogenase (Sf-Idh) from Sinorhizobium fredii USDA191 is an enzyme that oxidizes myo-inositol, and iolX (Bs-IolX) from Bacillus subtilis 168 is reported to encode an enzyme showing activity on scyllo-inositol. In addition, iolW (Bs-IolW) is said to be an NADPH-dependent inositol dehydrogenase. These six genes were introduced into an expression vector Pet21B(+) (Merck), and expressed by E. coli BL21 (DE3).

[4] = Conversion of DOI to quercitol by enzymes from recombinant E. coli (HPLC, diastereomer excess); settings: for Conversion rate: DOI to quercitol; for (−)-Vibo-quercitol produced: conversion of DOI; for Diastereomer excess of scyllo-quercitol: DOI converted to scyllo-quercitol
Description: Specifically, DOI conversion was carried out using a coenzyme regeneration system by formate dehydrogenase (FDH hereinafter, Roche Diagnostics Inc., product no. 244678). […] The reaction solution was incubated for three hours while shaking at 30° C.

[5] = substrate: O[C@@H]1[C@@H](O)[C@H](O)C[C@@H](O)[C@H]1O; assay: purified protein, by the assay type; settings: other: oxidation reaction
[6] = substrate: NC(=O)c1ccc[n+]([C@@H]2O[C@H](COP(=O)(O)OP(=O)(O)OC[C@H]3O[C@@H](n4cnc5c(N)ncnc54)[C@H](O)[C@@H]3O)[C@@H](O)[C@H]2O)c1; assay: Km value and Vmax of purified DOI reductase; type: biochemical, Burkholderia terrae; settings: other: 0.1M Gly-NaOH, pH 9.0
Description: as §1

[7] = substrate: O=C1C[C@@H](O)[C@H](O)[C@@H](O)[C@@H]1O; assay: Km value and Vmax of purified DOI reductase; type: biochemical, Burkholderia terrae; settings: other: reduction reaction
Description: as §1

[8] = Optimum pH of purified DOI reductase (DOI reduction, NADH decrease at 340 nm); type: biochemical; settings: buffers of each pH, 25° C.
Description: A quantity of 10 μL of 0.1 M DOI was added and mixed immediately. The rate of decrease in the absorbance (wavelength 340 nm) over two minutes was measured by spectrophotometer, and the activity was compared at each pH.

[9] = activity relative to the culture broth

O=C1C[C@@H](O)[C@H](O)[C@@H](O)[C@@H]1O [DOI, 2-deoxy-scyllo-inosose]
Vmax to DOI ([1]; reduction reaction): 116.28 U/mg

O[C@H]1[C@H](O)[C@@H](O)[C@H](O)[C@@H](O)[C@H]1O [Myo-inositol]
Substrate specificity (oxidation reaction) ([2]; pH 8.0, 25° C.): 3.21 U/mg
Substrate specificity (oxidation reaction) ([2]; pH 9.0, 25° C.): 5.71 U/mg

O[C@@H]1[C@@H](O)[C@H](O)C[C@@H](O)[C@H]1O [(−)-vibo-quercitol, (1R,2R,4S,5R)-cyclohexane-1,2,3,4,5-pentol]
Vmax to (−)-vibo-quercitol ([1]; oxidation reaction): 16.45 U/mg
Substrate specificity (oxidation reaction) ([2]; pH 8.0, 25° C.): 8.21 U/mg
Substrate specificity (oxidation reaction) ([2]; pH 9.0, 25° C.): 13.93 U/mg

B1: Ps-Idh: inositol dehydrogenase from Pseudomonas synxantha BG33R, homology with DOIR 68% (protein)
chain: MLRIAVLGAGRIAKIHAANVAAHPNATLVLVADPWREGVDALSTQLGCEAAYDCAAVLNRKDIDAVVIGTPTDTHIDLLLAAVAQGKAVLCEKPIDLDIAKARSAAQTVERQGGKVMLGFNRRFDPDMLRLRQALDAGQIGAVRQVIITSRDPGLAPREYLEHSGGILRDMTIHDFDTARHLLGEEPVQVSAFASRLVDPSLEQIDDYDSVMVLLRTASGKQCHINCCRQAVYGYDQRVEVSGASGVLLTDNHRPSTLRHWSAEHTEALEPLQHFFLERYADAYRNELMQFVDALNEGRELPTGMRDGLYALHLADCALESVKTGRSVAVCYDR
modifications: Pseudomonas synxantha BG33R
DOI reducing activity [3, 9]: 9.8 U/Ml culture
Conversion rate ([4]; from recombinant E. coli): ≥99%
(−)-Vibo-quercitol produced ([4]; from recombinant E. coli): 9.9 mM

B2: BS-IolW: NADPH-dependent inositol dehydrogenase from Bacillus subtilis 168, homology with DOIR 27% (protein, UniProt O32223 1-358, looked up)
scyllo-inositol …: MITLLKGRRKVDTIKVGILGYGLSGSVFHGPLLDVLDEYQISKIMTSRTEEVKRDFPDAEVVHELEEITNDPAIELVIVTTPSGLHYEHTMACIQAGKHVVMEKPMTATAEEGETLKRAADEKGVLLSVYHNRRWDNDFLTIKKLISEGSLEDINTYQVSYNRYRPEVQARWREKEGTATGTLYDLGSHIIDQTLHLFGMPKAVTANVMAQRENAETVDYFHLTLDYGKLQAILYGGSIVPANGPRYQIHGKDSSFIKYGIDGQEDALRAGRKPEDDSWGADVPEFYGKLTTIRGSDKKTETIPSVNGSYLTYYRKIAESIREGAALPVTAEEGINVIRIIEAAMESSKEKRTIMLEH
DOI reducing activity ([3]; using NADPH as coenzyme): 0.69) (using NADPH as coenzyme) U/Ml culture
catalytic activity to convert 2-deoxy-scyllo-inosose into (−)-vibo-quercitol / reduction of DOI (in words) [3]: low ability
Remaining DOI [4]: 9.9 mM

B3: BS-IolX: iolX enzyme from Bacillus subtilis 168, reported activity on scyllo-inositol, homology with DOIR 36% (protein, UniProt P40332 1-342, looked up)
scyllo-inositol …: MEHQVRCAVLGLGRLGYYHAKNLVTSVPGAKLVCVGDPLKGRAEQVARELGIEKWSEDPYEVLEDPGIDAVIIVTPTSTHGDMIIKAAENGKQIFVEKPLTLSLEESKAASEKVKETGVICQVGFMRRFDPAYADAKRRIDAGEIGKPIYYKGFTRDQGAPPAEFIKHSGGIFIDCSIHDYDIARYLLGAEITSVSGHGRILNNPFMEQYGDVDQALTYIEFDSGAAGDVEASRTSPYGHDIRAEVIGTEGSIFIGTLRHQHVTILSAKGSSFDIIPDFQTRFHEAYCLELQHFAECVRNGKTPIVTDIDATINLEVGIAATNSFRNGMPVQLDVKRAYTGM
DOI reducing activity [3, 9]: 0.13 U/Ml culture
catalytic activity to convert 2-deoxy-scyllo-inosose into (−)-vibo-quercitol / reduction of DOI (in words) [3]: low ability
Remaining DOI [4]: 0.4 mM
Diastereomer excess of scyllo-quercitol ([4]; from recombinant E. coli): ≥99%
Diastereomer excess of scyllo-quercitol ([4]; from recombinant E. coli, listed as Bs-IolX): 99%
Conversion rate ([4]; from recombinant E. coli): 96%
scyllo-quercitol produced (printed in the (−)-vibo-quercitol column, footnote *) ([4]; from recombinant E. coli, converted into scyllo-quercitol): 9.6* mM

B4: DOI reductase from Burkholderia terrae strain AKC-020 (Paraburkholderia terrae) (protein)
chain: MIRIAVLGAGRIGRIHAGNVAASPNAQLVVVADPVESAAKSLATRLGCEASTDPAGVLERKDIDAVVIGTPTDTHITFMLEAVRRGKAVLCEKPIDLDMEKSLAAANEVERQRGRVMLAFNRRFDPTSQAFRNAIDAGDVGEVRQVIISSRDPGMPPRDYVEHSGGIFRDMVIHDLDMARWLLGEEPVEVMAMASRLIDESLEKLTDFDTVMVQLRTASGKQCHINCCREAVYGYDQRMEVSGSKGMLLQENLRPSTIRRWSKEATDVREPLLNFFLERYEAAYKAELEAFVDALNTNSPLPTSVQDGLKALRLADAALESALSGKAVKV
Km [5]: 1.60 mM, 16.45 U/mg mM
Km [6]: 0.11 mM (0.1M Gly-NaOH, pH 9.0) mM
Km [7]: 0.41 mM, 116.28 U/mg mM

B5: DOIR: 2-deoxy-scyllo-inosose reductase from Burkholderia terrae strain AKC-020, amino acid sequence SEQ ID NO: 2 (protein)
chain: B4 chain
modifications: Burkholderia terrae AKC-020
DOI reducing activity [3, 9]: 11.2 U/Ml culture
Conversion rate ([4]; from recombinant E. coli): ≥99%
(−)-Vibo-quercitol produced ([4]; from recombinant E. coli): 9.9 mM
pH of maximum activity [8]: 7.0-9.0

B6: Bh-IolG: inositol dehydrogenase from Burkholderia sp. SJ98, homology with DOIR 79% (protein)
chain: MTRIAVLGAGRIGKIHAANVASNSDAKLVVVADPFEGAANSLAEKLGCEASTDCLSVIERDDVDAVVIGTPTDTHIQFMLHAVSKGKAVLCEKPIDLDMKKSLAAAKEVERHDGRVMLAFNRRFDPTSQAFRKAIDDGEVGDVRQVVITSRDPGMPPREYVTHSGGIFRDMVIHDLDLARWFLGEEPIEVMATGSRLVEPSLAEVPDFDTVMLQLRTESGKQCHINCCREAVYGYDQRLEVFGSRGMLLQENLRPSTIRRWSASATDAREPLLNFFLERYEAAYKTELTAFVEALRTNTTFPTSVADGLKALRLADCALESAMSCRSVKV
modifications: Burkholderia sp. SJ98
DOI reducing activity [3, 9]: 11.7 U/Ml culture
Conversion rate ([4]; from recombinant E. coli): ≥99%
(−)-Vibo-quercitol produced ([4]; from recombinant E. coli): 9.9 mM

B7: Pa-Idh: inositol dehydrogenase from Pantoea sp. At-9b, homology with DOIR 58% (protein)
chain: MKIAVLGAGRIGNVHAMNVASNPNVELVAIADPFIDNAIKLTEKYGGKAVKEPMELIESNAVDAVIIATPTDTHVDLMLSAARNGKAVLCEKPVDLNLERAEVACAELKQCDVPVMIAFNRRFDPSAAEMHSAIAKGEVGELHQIMISSRDPGFASMDYLRHSGGIFRDMTIHDFDMARWLLGEEPVQVFASASRMLEPALEPLNDFDTVMVQMITKSGKQCHINCSRQAVYGHDQRIEAYGSAGMLLNDNLRPSTLRRFNKSATDARVPLVHFFLERYADAYRMELEAFISAVKHAKPVPVTPYDGYMALKLADCAQQSAETGLPVQL
modifications: Pantoea sp. At-9b
DOI reducing activity [3, 9]: 8.4 U/Ml culture
Conversion rate ([4]; from recombinant E. coli): ≥99%
(−)-Vibo-quercitol produced ([4]; from recombinant E. coli): 9.9 mM

Reference: patent publication US10000743B2, “2-deoxy-scyllo-inosose reductase” (Asahi Kasei Chemicals Corporation, priority 2013, dated 2018)
